± gives the uncertainty stated by the source.
Experiment: protein stability index of a GFP-peptide fusion (yeast GPS) (PSI 1-4); higher = more stable; sorted into four equal gates, so the index is relative within each strain
Method in brief: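 Tiled 17-residue peptides from yeast proteins were fused downstream of GFP on a plasmid that also expresses Cherry, and the pooled library was carried in yeast. Mid-log cultures grown in leucine-free medium were sorted into four equal gates by GFP/Cherry fluorescence ratio. Plasmids from each gate were PCR-amplified and Illumina-sequenced, and reads were assigned to strains by barcodes. Each peptide's protein stability index is the sum, over gates, of the gate's read frequency multiplied by its gate number.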

| Sequence | protein stability index (doa10∆) | protein stability index (pdr5∆) | protein stability index (san1∆) | protein stability index (ubr1∆) |
| --- | --- | --- | --- | --- |
| LGRLSVRELVEKIDGMD [RPC82] | 3.08 ± 0.19 | 3.4 ± 0.26 | 3.23 ± 0.11 | 3.3 ± 0.063 |
| KEPVDDKDVKAKYETSI [FAS2] | 3.2 ± 0.086 | 3.21 ± 0.12 | 2.43 ± 0.12 | 2.83 ± 0.13 |
| PMDEETKLYFDVNEKIR [RPC25] | 3.01 ± 0.098 | 3.03 ± 0.086 | 3.01 ± 0.068 | 3.1 ± 0.1 |
| FLLNQNKQLSQSVEEKV [YIL149C/MLP2] | 2.16 ± 0.084 | 1.84 ± 0.1 | 1.77 ± 0.14 | 2.09 ± 0.068 |
| PAINYTKLKNAVQNESV [QCR2] | 1.9 ± 0.064 | 1.79 ± 0.059 | 2.2 ± 0.092 | 1.54 ± 0.048 |
| SQVYAIRQAIAKGLVAY [RPS16A] | 2.22 ± 0.069 | 2.35 ± 0.071 | 2.27 ± 0.1 | 2.42 ± 0.055 |
| DLRLGSQSLGVSNKFEK [PUP3] | 3.52 ± 0.14 | 3.52 ± 0.16 | 2.94 ± 0.13 | 3.62 ± 0.13 |
| YIWRYLPAPPVCIRPSV [RPO31] | 1.48 ± 0.14 | 1.27 ± 0.1 | – | 1.2 ± 0.23 |
| QSGSNSGNNSKKRKNKS [ROX3] | 2.96 ± 0.17 | 3.09 ± 0.097 | 3.02 ± 0.095 | 3.15 ± 0.066 |
| KLALAENDTNMNETLNL [SMC4] | 3.15 ± 0.13 | 3.15 ± 0.077 | 3.04 ± 0.1 | 2.85 ± 0.089 |
| SSDDLQNCWSLINDSYI [SSN8] | 1.94 ± 0.068 | 2.03 ± 0.081 | 1.53 ± 0.11 | 1.74 ± 0.064 |
| FRAVGEGNAQLVAIFGG [FAS1] | 1.17 ± 0.043 | 1.55 ± 0.063 | 1.51 ± 0.1 | 1.36 ± 0.055 |
| SIGINDVTPADDLKQKK [RPO31] | 2.99 ± 0.25 | – | – | – |
| TKDPDEQQLFEIFAFGN [CSN9] | 3.18 ± 0.13 | 3.09 ± 0.088 | 3.17 ± 0.052 | 2.83 ± 0.053 |
| TSDGALSVMCGCGTVKR [RPR2] | 2.43 ± 0.13 | 2.67 ± 0.1 | 1.93 ± 0.14 | 1.78 ± 0.13 |
| QAYFSRLELPVDFQNDL [BRR2] | 2.65 ± 0.15 | 2.1 ± 0.064 | 2.54 ± 0.066 | 2.32 ± 0.044 |
| LFDEFGNLIGVDPFDSD [SNU114] | 3.12 ± 0.078 | 3.04 ± 0.069 | 2.87 ± 0.069 | 3.17 ± 0.058 |
| ALLQRLKTNGKQNNKDF [MTW1] | 2.97 ± 0.1 | 3.33 ± 0.14 | 3.04 ± 0.13 | 2.28 ± 0.091 |
| SDMQHIERLLKDLVTEN [PRE4] | 1.63 ± 0.14 | 2.61 ± 0.13 | 2.31 ± 0.17 | 2.97 ± 0.15 |
| LRQFKTCPVEVIKRLEA [BRR2] | 2.94 ± 0.18 | 3.23 ± 0.17 | – | 2.81 ± 0.1 |
| KTFDYVSDHLDAIYREL [SMC1] | 3.31 ± 0.096 | 3.34 ± 0.12 | 3.37 ± 0.074 | 3.12 ± 0.1 |
| VITLAEYEKRNHGGSLG [SRP68] | 3.42 ± 0.11 | 3.06 ± 0.13 | 3.28 ± 0.074 | 3.55 ± 0.14 |
| PDTKISSAAILGLGIAF [RPN1] | 2.28 ± 0.043 | 2.3 ± 0.058 | 2.49 ± 0.087 | 2.06 ± 0.051 |
| SQVEDFTRIFLPIYDSL [SIR3] | 2.67 ± 0.059 | 2.64 ± 0.045 | 2.49 ± 0.059 | 2.36 ± 0.036 |
| ESYDAALSLHREILCYS [FAS2] | 2.18 ± 0.022 | 2.151 ± 0.019 | 2.28 ± 0.028 | 2.28 ± 0.017 |
| NTTLQDNVSFIEEAKSI [REC8] | 3.1 ± 0.084 | 3.22 ± 0.091 | 3.23 ± 0.064 | 3.17 ± 0.066 |
| NLQQQQQQQIQVPLQQT [YGR119C/NUP57] | 2.56 ± 0.13 | 2.76 ± 0.078 | 2.16 ± 0.18 | 3.03 ± 0.11 |

— the supplement of paper PMC9732359
